Results as given in paper PMC7997285.

target: human IRAK1 fused to the N-terminal Nanoluc fragment N67 (human) (UniProt P51617); test: split reporter (BiFC, NanoBiT)

Row | Substance | fold Nanoluc activity over control reactions [fold]
1 | CHIKV capsid protein fused to the C-terminal Nanoluc fragment C67 (from UniProt Q8JUX5) (natural protein) | > 10
2 | RRV capsid protein fused to the C-terminal Nanoluc fragment C67 (natural protein) | > 10
3 | SINV capsid protein fused to the C-terminal Nanoluc fragment C67 (from UniProt P03316) (natural protein) | 12
